± gives the half width of the 95% confidence interval.
Assays:
[1] = folding stability dG unfold (combined trypsin and chymotrypsin); higher = more stable
Outline: (§1)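 Only designs with AlphaFold2 dimer inter-PAE above 15 were retained; each was a mini-protein under 80 residues with no cysteine, in a PA-tagged cDNA display construct. After digestion with trypsin and chymotrypsin and sequencing, K50 was inferred by Bayesian fitting of counts, and unfolding free energy was derived per protease or combined against a sequence-predicted unfolded-state K50 and a shared folded-state K50.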

[2] = folding stability dG unfold from chymotrypsin proteolysis; higher = more stable
Outline: as §1

[3] = folding stability dG unfold from trypsin proteolysis; higher = more stable
Outline: as §1

Sequence	folding stability dG unfold [1]	folding stability dG unfold [2]	folding stability dG unfold [3]
SAGGMPIYARIVLYPPETGKFSELEIEFPEFESPDEVVEAAKEIAEKLGGPIARIEIYDPKTGKPFPDSAGG [r13_771_TrMRF]	0.314 ± 0.27 kcal/mol	0.281 ± 0.083 kcal/mol	0.592 ± 0.094 kcal/mol
SAGGMPKLTVTITFEPPDGSTTTTRDFTSVEEAIEALRAVPDIPVEPLEDDVIRARRPDSETTVTIVESAGG [r13_143_JUSTAS]	-0.171 ± 0.11 kcal/mol	-0.796 ± 0.24 kcal/mol	0.192 ± 0.07 kcal/mol
SAGGMPKYFAEVDTEPHGDKVKITLRIRDPNGVERELTFELPLSEVIKLLKELPEEFEVFELKFSDESAGGS [r16_298_TrMRF]	2.71 ± 0.14 kcal/mol	3.12 ± 0.034 kcal/mol	2.05 ± 0.042 kcal/mol
SAGGMPLEDMSLEELKARLEEALEELRAKLPPGEKKTLTLTVTLTVVDKETGETRTVTLTVTLTLPAPSAGG [r13_385_TrROS_Hall]	4.16 ± 0.076 kcal/mol	4.38 ± 0.052 kcal/mol	3.43 ± 0.064 kcal/mol
SAGGMPPEELEAASLEERIARVRAAGLETATVRRPDGSTLTIDLGEEGPVTITTTTPPGETTTATLPSAGGS [r8_51_JUSTAS]	0.654 ± 0.08 kcal/mol	0.975 ± 0.042 kcal/mol	-1.04 ± 0.55 kcal/mol
SAGGMPPGDPVKVNVQIRIRMRDPNGKKPELTVPIEYNVQSKEDARDAILKIAKELADEYGYEIEVFSAGGS [r8_149_TrROS]	1.31 ± 0.24 kcal/mol	1.52 ± 0.12 kcal/mol	0.711 ± 0.041 kcal/mol
SAGGMPPGSFRVRARRPVPLFVRVRLPNDPDVTVTFPVTVPAELELPVNSPEALEALREAGFEIEPASAGGS [r8_482_TrMRF]	0.357 ± 0.18 kcal/mol	0.114 ± 0.33 kcal/mol	0.608 ± 0.14 kcal/mol
SAGGMPVPVLIVVPEDKIEEIIKKIREETDEDVEIKAFKLPDGRVLLLITFNDPQLAEDFLKKFGFGSAGGS [r16_172_TrMRF]	5.13 ± 0.17 kcal/mol	5.17 ± 0.14 kcal/mol	4.27 ± 0.23 kcal/mol
SAGGMPVRVLITYESGEIPVTIPVDPNKVVEAEVELEDKTVKITVDPKAKTIKVDAPPSFKFEVLDPSAGGS [r16_761_JUSTAS]	0.277 ± 0.18 kcal/mol	0.257 ± 0.084 kcal/mol	0.35 ± 0.13 kcal/mol
SAGGMPVTVTIVVPPGTERELAEELAEKYAKEGADVEFEERPGGLVLTMTLPGGEVVTMEIRDPAQASAGGS [r16_406_JUSTAS]	2.34 ± 0.057 kcal/mol	2.382 ± 0.023 kcal/mol	2.3 ± 0.056 kcal/mol
SAGGMPYRLDAVRVEVRPRPDGGPLLVVELTYPDGSRETAVFDSPEDLLRALENSPRFSEITLLPSVSAGGS [r16_757_TrMRF]	0.739 ± 0.046 kcal/mol	0.16 ± 0.088 kcal/mol	1.01 ± 0.017 kcal/mol
SAGGMQALLRLPDTDEVVVLPDELLEAIASGDPERLAALPPEVREVISNVAELVVVPPPDGDPRPEGGSAGG [r13_233_TrMRF]	0.614 ± 0.15 kcal/mol	0.496 ± 0.15 kcal/mol	0.419 ± 0.032 kcal/mol
SAGGMRIELVRTYIEEPDENGKLKGSGYREVLVLRPPPPVIRVPPELLEEAEELRKKLDGPVEPEELGSAGG [r19_315_JUSTAS]	3.84 ± 0.42 kcal/mol	3.6 ± 0.18 kcal/mol	3.63 ± 0.38 kcal/mol
SAGGMRLRIVVKSEEEARELAEALAKKLKEEFPGLKIEVKVVKVEYNEETDLIVVEVEIKVELEDEEPSAGG [r13_585_TrROS_Hall]	4.42 ± 0.35 kcal/mol	4.42 ± 0.19 kcal/mol	4.6 ± 0.33 kcal/mol
SAGGMSFTMTVPPSNPNQVVGTNVPVSDVPPNYAYTLHFPNTGTTTTIPVSQAEEVKAQPHIDEITATSAGG [r19_302_JUSTAS]	0.486 ± 0.04 kcal/mol	0.0302 ± 0.085 kcal/mol	0.688 ± 0.03 kcal/mol
SAGGMSLEHVTEIVETVTHPDGTKTVTIRLSDPAIWAGEDPATAAALAEAVQAEHADEGVAVTVVGAPSAGG [r13_243_JUSTAS]	0.585 ± 0.15 kcal/mol	1.05 ± 0.042 kcal/mol	-0.642 ± 0.26 kcal/mol

Sequence	folding stability dG unfold [1]	folding stability dG unfold [2]	folding stability dG unfold [3]
SAGGMSPDQIWKAKLLSRKKGKNGSVYNIVIYNPDNPKPIFINKPGDNPEDVLKELEELVKKGPIDLESAGG [r13_286_TrMRF]	0.468 ± 0.18 kcal/mol	0.549 ± 0.21 kcal/mol	0.354 ± 0.22 kcal/mol
SAGGMSVSFPVDSSEELKKLLPKDYLVEIVSTPPDGSKSVRVVRPEDLEIDLPEGEKYYFEIKFLPKESAGG [r13_461_TrMRF]	0.203 ± 0.19 kcal/mol	-0.138 ± 0.093 kcal/mol	0.442 ± 0.072 kcal/mol
SAGGMSVTVSTHLSPEELRELVREIVEKNPGLEVKAVEVTDPATGEWRAVPLDEVPADRPVTVRVDLSRSAG [r5_357_JUSTAS]	0.495 ± 0.12 kcal/mol	0.388 ± 0.12 kcal/mol	0.506 ± 0.091 kcal/mol
SAGGMTEVSVSEELRAEGGGLERVLVVTITTVTKVYPVGSSNKVEYEESTIVIPADDPAALEAAGVLLSAGG [r13_670_JUSTAS]	0.257 ± 0.16 kcal/mol	-0.319 ± 0.36 kcal/mol	0.563 ± 0.07 kcal/mol
SAGGMTIFLPLENKEEVIEKLKKEGYKPVEVKEEGDVVTIKVEKKKDEKKEEITIVFYPPSKPEEPVSAGGS [r8_307_JUSTAS]	2.68 ± 0.1 kcal/mol	2.59 ± 0.085 kcal/mol	2.77 ± 0.14 kcal/mol
SAGGMTITFTLEFDLEDDRRITVTATIDPTGDDVLITVRVELTLPNGEKLEFTATIVLPPGAHPDELISAGG [r13_3_TrMRF]	5.53 ± 0.85 kcal/mol	5.25 ± 0.24 kcal/mol	4.15 ± 0.38 kcal/mol
SAGGMTITVKPPDGTVITYTSETLPEIIAKLDPNGTYTITIEVPKVDPSNGGARPIVKTYTVPKERISAGGS [r16_806_JUSTAS]	1.19 ± 0.17 kcal/mol	1.21 ± 0.17 kcal/mol	0.865 ± 0.11 kcal/mol
SAGGMTITVPVDEEEAEEFIREATGELTALAEKYPDVPIEIEFPLKSGRVIRLRVYPKSKKVEIEVYDSAGG [r13_216_TrMRF]	2.57 ± 0.045 kcal/mol	2.559 ± 0.024 kcal/mol	2.48 ± 0.057 kcal/mol
SAGGMTITVRVKAENPEEAIKKVEETVRSLGYRVVELKEVEVRYDEATGEVFVEATVEVEPLPEEEGSAGGS [r16_155_TrMRF]	4.8 ± 0.12 kcal/mol	4.81 ± 0.12 kcal/mol	4.37 ± 0.13 kcal/mol
SAGGMTITVTVGPGKEEEAVEALKKKTGLKVELVETTPRPVRAPDGTVLEEVEEITIKITKPDPNLKESAGG [r13_943_JUSTAS]	-0.638 ± 0.45 kcal/mol	-0.269 ± 0.2 kcal/mol	-0.511 ± 0.21 kcal/mol
SAGGMTKEKALELAEEIAREFAKKHGIEKLELKVEDVVEKEDEVIVRLKIVYPDKVYELDLVVPKDYVSAGG [r13_611_TrMRF]	3.7 ± 0.19 kcal/mol	4.06 ± 0.13 kcal/mol	2.69 ± 0.11 kcal/mol
SAGGMTLEELAARVGRVEVEEAEDGGRVLRVTIPLAGPGGPPAPRTFLIEIPPDRPDLTIAEVLARLGSAGG [r13_319_TrMRF]	1.66 ± 0.07 kcal/mol	1.84 ± 0.057 kcal/mol	1.38 ± 0.064 kcal/mol
SAGGMTLEELKAKITKVEVEEREDGSLKLRLTIKVKNEDGSEEEIELTITLPEEEKNMSLEELLEKLLSAGG [r13_319_TrROS_Hall]	4.03 ± 0.13 kcal/mol	3.82 ± 0.12 kcal/mol	4.26 ± 0.27 kcal/mol
SAGGMTLKIRVKDKEKALEALKALPGIEVKEVKVEKNENGELTVTVESKEALDALKKAGIEVEEIEPSAGGS [r16_381_TrROS_Hall]	2.9 ± 0.16 kcal/mol	3.18 ± 0.087 kcal/mol	2.33 ± 0.15 kcal/mol
SAGGMTLNITVEIPGLGTTITKTFSANPSDYEKIARETEEENPEYKLTSVKVTYSPNSITIDATVELVSAGG [r13_196_JUSTAS]	2.04 ± 0.21 kcal/mol	2.38 ± 0.057 kcal/mol	1.38 ± 0.17 kcal/mol

— the supplement of paper PMC12764529
